By stoichiometry N is commonly meant the number of molecules, sites or subunits per partner or assembly.

The target of experiment [1] is Bonsai gelsolin, fragment 28–161 of gelsolin (human). Put plainly: SAXS; 28–161 at 8 mg/ml, 1 mM EGTA, 30 °C.
The target is the same in experiment [2]. Description: SAXS; 28–161 at 8 mg/ml, 1 mM EGTA, 40 °C.
For experiment [3] the target is unchanged. Put plainly: SAXS; 28–161 at 8 mg/ml, 1 mM free Ca2+, 40 °C.
The target is the same in experiment [4]. Description: SEC; 8 mg/ml in EGTA buffer heated at 30 °C for 30 min, cooled to room temperature; 200 μl injected, column at room temperature. A general note: In gel filtration, larger molecules generally elute earlier.

On to “Bonsai gelsolin, fragment 28–161 of gelsolin (domain or fragment)”, for which the stoichiometry N stood at 2 in experiment [1], 4 in experiment [2], 2 in experiment [3] and 2 in experiment [4].

Values taken from article PMC6105678.
